This is an account of results in article doi:10.1101/2021.01.25.428026.

For assay [1], the target named is recombinant DJ-1 C46A mutant (human) (UniProt Q99497). Briefly: non-reducing SDS-PAGE.
Assay [2] addresses recombinant DJ-1 C53A mutant (human) (UniProt Q99497). Briefly: non-reducing SDS-PAGE.

For the substance “recombinant DJ-1 C46A mutant (from UniProt Q99497 1-189) (natural protein)”, in assay [1], the stoichiometry N (commonly the number of molecules, sites or subunits per partner or assembly) was 3. Turning to “recombinant DJ-1 C53A mutant (from UniProt Q99497 1-189) (natural protein)”, the stoichiometry N in assay [2] came out at 3.
